Source: patent US20260009052, “CAS12 PROTEINS AND USES THEREOF” (GUANGZHOU REFORGENE MEDICINE CO., LTD., published 2026)

What was measured:
[1] = target: T1, C12-279 Mut-03 (synthetic construct, G184R,Q186R,D352R); test: cell_activity; PAM TTG
T1 chain: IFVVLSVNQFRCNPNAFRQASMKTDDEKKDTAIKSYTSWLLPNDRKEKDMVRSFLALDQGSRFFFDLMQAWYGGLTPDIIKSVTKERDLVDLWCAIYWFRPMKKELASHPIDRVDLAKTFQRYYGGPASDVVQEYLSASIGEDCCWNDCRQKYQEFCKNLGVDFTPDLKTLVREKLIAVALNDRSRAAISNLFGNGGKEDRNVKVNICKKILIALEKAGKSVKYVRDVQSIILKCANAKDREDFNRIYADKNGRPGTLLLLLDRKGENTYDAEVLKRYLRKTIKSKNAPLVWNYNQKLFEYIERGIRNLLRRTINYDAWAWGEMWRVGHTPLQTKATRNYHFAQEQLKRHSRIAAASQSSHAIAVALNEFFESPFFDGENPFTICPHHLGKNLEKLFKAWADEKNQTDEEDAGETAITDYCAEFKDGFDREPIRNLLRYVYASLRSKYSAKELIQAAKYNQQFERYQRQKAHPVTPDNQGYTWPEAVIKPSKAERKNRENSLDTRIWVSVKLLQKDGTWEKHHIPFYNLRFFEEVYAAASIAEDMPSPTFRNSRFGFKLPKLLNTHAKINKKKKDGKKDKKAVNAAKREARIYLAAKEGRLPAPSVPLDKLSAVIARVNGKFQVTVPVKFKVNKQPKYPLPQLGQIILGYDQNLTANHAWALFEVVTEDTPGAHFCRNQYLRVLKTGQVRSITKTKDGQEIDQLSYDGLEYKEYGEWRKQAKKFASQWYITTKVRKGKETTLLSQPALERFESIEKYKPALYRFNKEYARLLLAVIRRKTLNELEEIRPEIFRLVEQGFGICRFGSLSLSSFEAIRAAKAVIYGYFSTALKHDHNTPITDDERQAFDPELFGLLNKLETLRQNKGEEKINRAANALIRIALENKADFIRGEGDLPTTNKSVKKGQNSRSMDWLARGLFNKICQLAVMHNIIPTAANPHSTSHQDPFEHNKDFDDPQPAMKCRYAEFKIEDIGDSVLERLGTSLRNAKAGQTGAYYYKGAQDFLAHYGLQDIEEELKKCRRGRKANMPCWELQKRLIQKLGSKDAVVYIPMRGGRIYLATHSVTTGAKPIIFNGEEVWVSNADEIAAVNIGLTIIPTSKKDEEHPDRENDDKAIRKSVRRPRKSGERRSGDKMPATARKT
Description: Transfection: transfection was performed 12-14 h after plating. 1.5 μL PEI (Yeasen Biotechnology, 40815ES03, Polyethylenimine Linear (PEI) MW25000) and 500 ng mutation clone plasmid were added to 100 μL Opti-MEM per well of the 24-well plate, mixed, and added to the NAAN cell line for cell transfection after placing at room temperature for 20 min. After overnight transfection, a fresh culture medium was replaced, and the culture was continued for 72 h, followed by flow cytometry. Editing efficiencies of different mutant clones were characterized by the proportion of GFP-positive cells.
Editing efficiency of some selected mutants was tested in Reporter3 cell line using the same manner as described for the NAAN reporter system, except that the cell line was changed from NAAN cell line to Reporter3 cell line.

[2] = target: T2, C12-279 Mut-02-1-426-846-858-860 (C12-279-V4) (synthetic construct, I1R,Q186R,D352R,D426R,846R,858R,L860R); test: cell_activity; PAM TTG; mutant PAM 5'-WTN-3' by Example 17
T2 chain: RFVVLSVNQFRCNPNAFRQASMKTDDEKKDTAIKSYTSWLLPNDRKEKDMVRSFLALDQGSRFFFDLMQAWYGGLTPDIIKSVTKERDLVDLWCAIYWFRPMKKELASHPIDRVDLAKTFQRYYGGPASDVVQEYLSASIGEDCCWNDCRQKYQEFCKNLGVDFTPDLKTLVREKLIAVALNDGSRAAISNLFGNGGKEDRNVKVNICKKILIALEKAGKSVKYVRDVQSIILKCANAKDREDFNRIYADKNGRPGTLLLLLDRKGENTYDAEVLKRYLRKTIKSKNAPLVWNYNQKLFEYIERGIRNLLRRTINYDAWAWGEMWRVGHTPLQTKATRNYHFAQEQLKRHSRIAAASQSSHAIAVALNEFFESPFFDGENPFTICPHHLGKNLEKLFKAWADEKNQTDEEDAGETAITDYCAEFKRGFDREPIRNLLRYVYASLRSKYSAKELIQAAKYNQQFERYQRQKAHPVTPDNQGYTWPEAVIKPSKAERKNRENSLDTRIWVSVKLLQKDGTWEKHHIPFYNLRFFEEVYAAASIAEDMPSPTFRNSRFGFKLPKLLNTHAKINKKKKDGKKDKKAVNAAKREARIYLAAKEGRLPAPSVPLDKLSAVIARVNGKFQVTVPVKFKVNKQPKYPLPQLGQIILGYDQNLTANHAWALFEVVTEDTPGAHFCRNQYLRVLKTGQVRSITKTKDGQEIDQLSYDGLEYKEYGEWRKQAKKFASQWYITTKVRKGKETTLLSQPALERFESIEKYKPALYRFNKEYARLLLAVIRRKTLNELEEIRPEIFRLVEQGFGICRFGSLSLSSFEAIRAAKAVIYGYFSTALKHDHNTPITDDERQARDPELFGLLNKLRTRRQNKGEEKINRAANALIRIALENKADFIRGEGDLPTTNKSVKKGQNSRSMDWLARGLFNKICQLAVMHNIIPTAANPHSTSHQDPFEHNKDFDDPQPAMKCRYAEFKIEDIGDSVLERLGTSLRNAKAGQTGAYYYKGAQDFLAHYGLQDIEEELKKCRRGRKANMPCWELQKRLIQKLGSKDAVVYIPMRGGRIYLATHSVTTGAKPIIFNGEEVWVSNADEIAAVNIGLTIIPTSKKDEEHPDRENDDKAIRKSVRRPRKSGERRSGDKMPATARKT

B1: C12-279 Reporter3 sgRNA ; Reporter3 target (ssRNA ; dsDNA)
RNA: GUAAUGCGUCUCCCAUUGACGCCUCACCUCGCGACGCAAUGAUG
DNA 1: CTCACCTCGCGACGCAATGATG
DNA 2: CATCATTGCGTCGCGAGGTGAG
With B1 the binding signal [1] was 2.28 fold of C12-279 and the binding signal [2] was 3.88 fold of C12-279.
